Results as given in article PMC8352940 (Nature Communications, 2021).

Biological target: SARS-CoV-2 RBD-Fc fusion protein (SARS-CoV-2, UniProt P0DTC2)
Assay: ELISA
Details: both partners purified

Row | Binder | fold change in EC50 compared to wild type [fold]
1 | nCoVmab1 (antibody, V domains shown, also called nCoVFab1 in IgG1 format; source: 293F cells, purified (Protein A resin)) VH: QVQLVESGGGLVQPGGSLRLSCAASGFTVSSNYMSWVRQAPGKGLEWVSVIYSGGSTYYADSVKGRFTISRDNSKNTLYLQMNSLRAEDTAVYYCARGDGSDDYYYGMDVWGQGTTVTVSS VL: QSVVTQPPSVSGAQGQRVFISCTGNGANIGMGYDVHWYQQLPGRAPKLLIFGNTNRPSGVPDRFSASRSGTSASLAITGLQTADEADYYCQSYDGNLRASVFGGGTKLTVL | 1
2 | nCoVmab2 (antibody, V domains shown, also called nCoVFab2 in IgG1 format; source: 293F cells, purified (Protein A resin)) VH: EVQLVQSGGGVVQPGRSLRLSCAASGFTVSSNYMSWVRQAPGKGLEWVSVIYSGGSTYYADSVKGRFTISRDNSKNTLYLQMNSLRAEDTAVYYCARGDGSDDYYYGMDVWGQGTTVTVSS VL: QAVLTQPSSVSGAPGQRVTISCTGSSSNVGAGYDVHWYQQLPGTAPKLLIYGNSNRPSGVPDRFSGSKSGTSASLAITGLQAEDEADYYCQSYDSSLSGSVFGGGTKLTVL | 1
